The values that follow come from patent US20220396632A1 (VERSEAU THERAPEUTICS, published 2022).

Assay [1] has as its target T1, PSGL-1 endogenously expressed on HL-60 cells (UniProt Q14242 42-412).
T1 construct: whole, on cells
T1 sequence (looked up): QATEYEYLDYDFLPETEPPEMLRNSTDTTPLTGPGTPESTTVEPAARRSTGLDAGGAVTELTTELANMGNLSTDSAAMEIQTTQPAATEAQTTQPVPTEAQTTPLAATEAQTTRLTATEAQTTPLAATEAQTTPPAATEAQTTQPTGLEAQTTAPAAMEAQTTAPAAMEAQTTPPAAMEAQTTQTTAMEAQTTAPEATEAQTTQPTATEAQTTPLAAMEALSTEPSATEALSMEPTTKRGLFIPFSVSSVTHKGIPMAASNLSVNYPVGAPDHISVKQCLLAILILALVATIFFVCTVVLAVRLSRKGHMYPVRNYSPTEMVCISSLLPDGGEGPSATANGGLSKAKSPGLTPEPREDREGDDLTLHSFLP
In words: flow cytometry on HL-60 cells; against parent 20I15. As for the experimental part: (§1) A typical flow cytometry assay was performed by resuspending HL-60 cells in FACS buffer (5% FBS and 0.05% Sodium Azide in PBS, pH 7.2) on ice, pelleting cells by centrifugation at 500×g for 3 min, washing cells with FACS buffer, and then blocking Fc receptors on the cells with Fc block (human TruStain FcX™, BioLegend Cat. #422302) on ice for 10 min. After washing, 50,000 cells/50 ul in FACS buffer was added to each well of a 96-well round bottomed plate (Costar, Cat. #3797), and 50 ul of serially diluted (0.06 nM-1.0 uM) test or isotype control antibody was added into duplicate wells. The plate was covered and incubated on ice for 1 h. After washing, Phycoerythrin (PE) conjugated anti-human IgG secondary antibody (Abcam; Cat. #ab99825) was added to each well and the plate incubated in the dark on ice for 30 min. After washing, the cells were fixed (1% paraformaldhyde).

Assay [2] addresses T1, PSGL-1 endogenously expressed on HL-60 …. The experiment in a line: flow cytometry on HL-60 cells. As for the experimental part: as §1
For orientation: In flow cytometry, cells or beads pass a laser one at a time.

Assay [3] has the same target. The experiment in a line: flow cytometry on HL-60 cells; against parent 19L04. As for the experimental part:
as §1

Assay [4] concerns the target T2, Cynomolgus PSGL-1(ECD)-HIS (cynomolgus macaque).
T2 construct: also called Cyno PSGL1-His
T2 chain: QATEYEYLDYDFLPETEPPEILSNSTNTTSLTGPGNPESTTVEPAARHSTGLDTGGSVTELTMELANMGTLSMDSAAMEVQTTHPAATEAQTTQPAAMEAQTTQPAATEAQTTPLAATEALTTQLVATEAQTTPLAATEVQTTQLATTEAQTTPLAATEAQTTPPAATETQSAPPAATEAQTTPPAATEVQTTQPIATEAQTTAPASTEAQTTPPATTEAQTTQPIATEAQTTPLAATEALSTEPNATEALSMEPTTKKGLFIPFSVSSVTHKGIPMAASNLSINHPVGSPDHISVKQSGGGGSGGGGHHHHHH
The experiment in a line: ELISA, plate cyno PSGL-1(ECD)-HIS. As for the experimental part: Antibody binding to plate-immobilized cyno PSGL-1(ECD) was determined either at one concentration (20 nM) or by generating full antibody binding curves (0.003-200 nM). A typical ELISA was performed by overnight coating at 4° C. with 3 ug/mL/25 ul per well of recombinant cyno PSGL-1(ECD) protein in PBS, pH 7.4, in high binding half-well plates (Corning Cat. #3690). […] Anti-PSGL-1 IgG in assay buffer (blocking buffer containing 0.05% tween 20) was added into test and control wells (20 nM/25 ul/well) and the plate incubated for 45 min at 37° C. […] The plate was incubated for 45 min at 37° C., and mAb bound to plate-immobilized target determined at A450 nm using HRP substrate (3,3′,5,5′-tetramethylbenzidine (TMB)). For each antibody, duplicate values were averaged and assay background subtracted.
A general note: An ELISA detects its analyte on a solid surface through an enzyme-linked reagent.

In assay [5] the target is T3, Recombinant human PSGL-1(ECD)-hFc1 (R&D Systems, Cat. 3345-PS) (human, UniProt Q14242 42-305).
T3 construct: Bought; Gln42-Val295 counted on AAC50061; also called PSGL-1-Fc; PSGL-1-hFc1 chimera; not shown: human IgG1 Fc, Pro100-Lys330
T3 sequence: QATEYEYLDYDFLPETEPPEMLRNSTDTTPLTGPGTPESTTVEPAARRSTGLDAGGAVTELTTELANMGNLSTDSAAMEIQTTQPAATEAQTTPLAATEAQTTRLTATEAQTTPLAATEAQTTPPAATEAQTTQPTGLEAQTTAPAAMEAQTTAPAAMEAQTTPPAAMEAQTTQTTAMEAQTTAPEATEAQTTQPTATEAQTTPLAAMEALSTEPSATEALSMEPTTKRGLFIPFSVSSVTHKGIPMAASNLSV
The experiment in a line: blocking ELISA vs P-selectin-Fc. As for the experimental part:
(§2) A typical selectin blocking ELISA assay involved coating high binding half-well plates (Corning, Cat. #3690) with 2.5 ug/mL/25 ul per well of recombinant PSGL-1-Fc protein (R&D Systems, Cat #3345-PS) in PBS, pH 7.4, overnight at 4° C. […] Antibody (test and controls) was serially diluted (25 ul/well) in duplicate in assay buffer (3% BSA in wash buffer) into appropriate wells and the plate incubated for 45 min at 37° C. […] The plate was washed ×3 and HRP-conjugated streptavidin was added in assay buffer [25 ul per well; (Jackson Immunoresearch, Cat. #016-030-084)] and the plate incubated for 45 min at 37° C. […] For each antibody, an IC50 value was determined from sigmoidal fitted titration curves.

Assay [6] has as its target T3, Recombinant human PSGL-1(ECD)-hFc1 (R&D …). The experiment in a line: blocking ELISA vs L-selectin-Fc. As for the experimental part:
as §2

The target is the same in assay [7]. In words: blocking ELISA vs VISTA-Fc, pH 6.0.
Assay [8] has as its target T4, Scrambled Y46,48,51(SO3) PSGL-1(42-62) biotin peptide (sulfotyrosine at peptide positions 5, 7 and 10; C-terminal Lys-biotin).
T4 construct: also called scrambled sulfated peptide: biotin
T4 peptide: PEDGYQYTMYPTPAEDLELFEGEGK
In words: ELISA, immobilized biotin peptide. The procedure, abridged: (§3)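 In this ELISA, half-well high binding plates (Corning Cat. #3690) received 3 ug/mL/25 ul per well of biotin-tagged PSGL-1 peptides covering residues 42 to 62, diluted in PBS, pH 7.4, and coated overnight at 4° C. Duplicate readings for each antibody were averaged and the average assay background was subtracted. PSGL-1 protein or peptide was the positive control.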

Assay [9] addresses T5, Biotin sY51 PSGL-1(42-62) peptide (human, sulfotyrosine at Y51; C-terminal Lys-biotin).
T5 construct: also called Y51(SO3) PSGL-1(42-62)
T5 peptide: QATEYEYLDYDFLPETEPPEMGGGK
The experiment in a line: ELISA, immobilized biotin peptide. An outline of the steps:
as §3

Assay [10] has as its target T6, Biotin PSGL-1(42-62) peptide, unmodified (human, C-terminal Lys-biotin).
T6 construct: Residues 42-62 followed by GGGK-biotin; also called WT; wild-type
T6 peptide: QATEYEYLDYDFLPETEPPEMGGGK
The experiment in a line: ELISA, immobilized biotin peptide. The procedure, abridged:
as §3

Positions count from the first letter of the chain named.

Usually EC50 stands for the concentration giving half of the maximal effect. Read a high EC50 as a less potent agent.

B1: 20I15.004 (antibody, IgG4, V domains shown)
VH: EVKLVESGGGLVQPGGSLRLSCAASGFTFTDYYMSWVRQAPGKGLEWLGFIRNKAQGYTTEYSASVKGRFTISRDNSQNSLYLQMNSLKTEDTAVYYCARTYLRRGYFDVWGQGTLVTVSS
VL: DIQLTQSPSTLSASVGDRVTITCRASKSVSTSGYSYMHWFQQKPGKAPKLLIYLASNLESGVPSRFSGSGSGTEFTLTISSLQPDDFATYYCQHSRELPLTFGQGTKLEIK
notes: Humanised
As to B1, in assay [1], the “HL-60 EC50 (normalized)” value was 0.7 fold. Moreover, in assay [2], the response was half-maximal at 1 nM (EC50).

B2: 20I15.006 (antibody, IgG4, V domains shown)
VH: B1 VH with K3Q, Q56S, Q78K
VL: B1 VL with Q3V, E74D
notes: Humanised
Take B2: the “HL-60 EC50 (normalized)” value in assay [1] was 0.6 fold. In assay [2], this molecule had an EC50 of 0.8 nM.

B3: 20I15.008 (antibody, IgG4, V domains shown)
VH: B1 VH
VL: B1 VL with Q3V, E74D
notes: Humanised
With B3, the “HL-60 EC50 (normalized)” value in assay [1] came to 1.1 fold. In [2], this molecule registered an EC50 of 1.6 nM.

B4: 20I15.005 (antibody, IgG4, V domains shown)
VH: B1 VH with K3Q, Q56N, Q78K
VL: B1 VL with Q3V, E74D
notes: Humanised
Take B4: the “HL-60 EC50 (normalized)” value in assay [1] worked out at 0.9 fold. For the same molecule, the concentration giving a half-maximal response (EC50) in [2] was determined as 1.3 nM.

B5: 20I15.007 (antibody, IgG4, V domains shown)
VH: B1 VH with Q56N
VL: B1 VL with Q3V, E74D
notes: Humanised
In the case of B5, in [1], the “HL-60 EC50 (normalized)” value amounted to 0.6 fold. The molecule also had an EC50 in [2] of 0.8 nM.

B6: 19L04.002 (antibody, IgG4, V domains shown)
VH: QIQLVQSGSELKKPGASVKVSCKASGYTFTTYGMSWVRQAPGQGLKWMGWINTYSGVPTYADDFKGRFVFSLDTSVSTAYLQISSLKAEDTAVYFCARHYYGSHYFDYWGQGTLVTVSS
VL: DIVMTQSPDSLAVSLGERATIRCKSSQSLLSSSNQKNYLAWYQQKPGQPPKLLVYFASTRESGVPDRFSGSGSGTDFTLTISSLQAEDVAVYYCQQHYFSPLTFGQGTKLEIK
notes: Humanised
Molecule B6 yielded an EC50 in [2] of 2.5 nM. For the same molecule, in assay [3], the “HL-60 EC50 (normalized)” value was 1.3 fold.

B7: 19L04.008 (antibody, IgG4, V domains shown)
VH: QIQLVQSGAEVKKPGASVKVSCKASGYTFTTYGMSWVRQAPGQGLKWMGWINTYSGVPTYADDFKGRFTFTLDTSISTAYMELSRLRSDDTAVYFCARHYYGSHYFDYWGQGTLVTVSS
VL: B6 VL with I21L, D66V, Y93F
notes: Humanised
B7: in assay [2], a half-maximal effect (EC50) was put at 2.9 nM. For the same molecule, the “HL-60 EC50 (normalized)” value in [3] was determined as 1.5 fold.

B8: 19L04.006 (antibody, IgG4, V domains shown)
VH: B6 VH
VL: B6 VL with I21L, D66V, Y93F
notes: Humanised
For the molecule B8, in assay [2], the EC50 was determined as 3.5 nM. Besides, the “HL-60 EC50 (normalized)” value in assay [3] turned out to be 1.8 fold.

B9: 19L04.004 (antibody, IgG4, V domains shown)
VH: B7 VH
VL: B6 VL
notes: Humanised
The molecule B9 showed an EC50 in assay [2] of 8.9 nM. For the same molecule, in assay [3], the “HL-60 EC50 (normalized)” value was determined as 4.5 fold.

B10: 18L13 (antibody, V domains shown)
VH: EVQLQQSGAELVRPGASVKLSCTASGFNIKDDFMHWVKQRPEQGLEWIGRIDPASGKTEYVPKFQDKATLTADTSSNTAYLQLSSLTSEDTAVYYCARRIAYWGQGTLVTVSA
VL: DVVMTQTPLTLSVTIGQPASISCKSSQSLLHSNGKTYLNWLLQRPGQSPKLLIYLVSKLESGLPDRFSGSGSGTDFSLKISRVEAEDLGVYYCLQTTHFPQTFGGGTKLEIK
notes: Mouse hybridoma mAb; only variable domains given
As to B10, the EC50 came out at 0.76 nM in assay [4], 2.63 nM in assay [8], 0.914 nM in assay [9] and 0.764 nM in assay [10]. The “% max Block” value in assay [5], in assay [6] and in [7] was 0% throughout.
